± gives the standard deviation of the averaged measurements.
Experiments:
Saccharomyces cerevisiae [1] = test: protein stability index of tFT-peptide fusion (C-terminal peptide) (PSI (0-1 scale)); higher = more stable (slower turnover); conditions: genetic background: wild type; temperature: 30 C
Saccharomyces cerevisiae [2] = test: as above
Experimental: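 MPS profiling in S. cerevisiae of the tFT-X12 degron library: putative degron peptides plus stable controls, 12 aa, fused to the C-terminus of a sfGFP-mCherry timer. Cells are FACS-sorted into 8 mCherry/sfGFP bins and deep-sequenced. PSI runs from 0 (unstable) to 1 (stable). Backgrounds are wild type, das1Δ and doa10Δ at 30 °C, and wild type, das1Δ, cdc34-1 and cdc53-1 at 37 °C; 2-3 technical replicates each.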

[3] = genetic background: cdc34-1, temperature: 37 C
[4] = genetic background: cdc53-1, temperature: 37 C
[5] = genetic background: das1 deletion, temperature: 30 C
[6] = genetic background: das1 deletion, temperature: 37 C
[7] = genetic background: doa10 deletion, temperature: 30 C
[8] = genetic background: wild type, temperature: 30 C
[9] = genetic background: wild type, temperature: 37 C
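Further: PSI is a weighted mean of sequencing reads over stability bins, variants kept only with over 10 reads, mCherry proximal and sfGFP distal, peptide attached via GGGS linker.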

LGVCLFFVRCWS
protein stability index (Saccharomyces cerevisiae [1]): 0.174 ± 0.047 | protein stability index (Saccharomyces cerevisiae [2]; [3]): 0.1796 ± 0.0014 | protein stability index (Saccharomyces cerevisiae [2]; [4]): 0.205 ± 0.0098 | protein stability index (Saccharomyces cerevisiae [2]; [5]): 0.189 ± 0.033 | protein stability index (Saccharomyces cerevisiae [2]; [6]): 0.324 ± 0.019 | protein stability index (Saccharomyces cerevisiae [2]; [7]): 0.159 ± 0.025 | protein stability index (Saccharomyces cerevisiae [2]; [8]): 0.184 ± 0.033 | protein stability index (Saccharomyces cerevisiae [2]; [9]): 0.271 ± 0.034

LLAWLHTVQRVG
protein stability index (Saccharomyces cerevisiae [1]): 0.339 ± 0.011 | protein stability index (Saccharomyces cerevisiae [2]; [3]): 0.695 ± 0.028 | protein stability index (Saccharomyces cerevisiae [2]; [4]): 0.7529 ± 0.0028 | protein stability index (Saccharomyces cerevisiae [2]; [5]): 0.659 ± 0.02 | protein stability index (Saccharomyces cerevisiae [2]; [6]): 0.7844 ± 0.0033 | protein stability index (Saccharomyces cerevisiae [2]; [7]): 0.226 ± 0.0046 | protein stability index (Saccharomyces cerevisiae [2]; [8]): 0.271 ± 0.023 | protein stability index (Saccharomyces cerevisiae [2]; [9]): 0.493 ± 0.013

WSWVFVVLRFGR
protein stability index (Saccharomyces cerevisiae [1]): 0.527 ± 0.048 | protein stability index (Saccharomyces cerevisiae [2]; [3]): 0.485 ± 0.035 | protein stability index (Saccharomyces cerevisiae [2]; [4]): 0.5367 ± 0.0019 | protein stability index (Saccharomyces cerevisiae [2]; [5]): 0.405 ± 0.027 | protein stability index (Saccharomyces cerevisiae [2]; [6]): 0.574 ± 0.017 | protein stability index (Saccharomyces cerevisiae [2]; [7]): 0.412 ± 0.025 | protein stability index (Saccharomyces cerevisiae [2]; [8]): 0.394 ± 0.024 | protein stability index (Saccharomyces cerevisiae [2]; [9]): 0.562 ± 0.014

IWVVIISDSRVG
protein stability index (Saccharomyces cerevisiae [1]): 0.352 ± 0.0071 | protein stability index (Saccharomyces cerevisiae [2]; [3]): 0.33375 ± 0.00011 | protein stability index (Saccharomyces cerevisiae [2]; [5]): 0.283 ± 0.059 | protein stability index (Saccharomyces cerevisiae [2]; [6]): 0.488 ± 0.02 | protein stability index (Saccharomyces cerevisiae [2]; [7]): 0.247 ± 0.019 | protein stability index (Saccharomyces cerevisiae [2]; [8]): 0.342 ± 0.094 | protein stability index (Saccharomyces cerevisiae [2]; [9]): 0.4636 ± 0.0027

SLALLFSFLLFL
protein stability index (Saccharomyces cerevisiae [1]): 0.438 ± 0.013 | protein stability index (Saccharomyces cerevisiae [2]; [3]): 0.504 ± 0.041 | protein stability index (Saccharomyces cerevisiae [2]; [4]): 0.404 ± 0.028 | protein stability index (Saccharomyces cerevisiae [2]; [5]): 0.448 ± 0.021 | protein stability index (Saccharomyces cerevisiae [2]; [6]): 0.536 ± 0.0096 | protein stability index (Saccharomyces cerevisiae [2]; [7]): 0.605 ± 0.056 | protein stability index (Saccharomyces cerevisiae [2]; [8]): 0.461 ± 0.015 | protein stability index (Saccharomyces cerevisiae [2]; [9]): 0.54 ± 0.042

GGGWCVWMVWFG
protein stability index (Saccharomyces cerevisiae [1]): 0.401 ± 0.024 | protein stability index (Saccharomyces cerevisiae [2]; [3]): 0.482 ± 0.036 | protein stability index (Saccharomyces cerevisiae [2]; [4]): 0.568 ± 0.0063 | protein stability index (Saccharomyces cerevisiae [2]; [5]): 0.411 ± 0.03 | protein stability index (Saccharomyces cerevisiae [2]; [6]): 0.595 ± 0.011 | protein stability index (Saccharomyces cerevisiae [2]; [7]): 0.23 ± 0.006 | protein stability index (Saccharomyces cerevisiae [2]; [8]): 0.261 ± 0.027 | protein stability index (Saccharomyces cerevisiae [2]; [9]): 0.481 ± 0.036

GCVVLNTVAFIC
protein stability index (Saccharomyces cerevisiae [1]): 0.167 ± 0.037 | protein stability index (Saccharomyces cerevisiae [2]; [3]): 0.492 ± 0.0084 | protein stability index (Saccharomyces cerevisiae [2]; [4]): 0.583 ± 0.017 | protein stability index (Saccharomyces cerevisiae [2]; [5]): 0.448 ± 0.025 | protein stability index (Saccharomyces cerevisiae [2]; [6]): 0.625 ± 0.0075 | protein stability index (Saccharomyces cerevisiae [2]; [7]): 0.108 ± 0.0055 | protein stability index (Saccharomyces cerevisiae [2]; [8]): 0.127 ± 0.019 | protein stability index (Saccharomyces cerevisiae [2]; [9]): 0.136 ± 0.018

ALCPPLPMLVVA
protein stability index (Saccharomyces cerevisiae [1]): 0.2097 ± 0.00085 | protein stability index (Saccharomyces cerevisiae [2]; [3]): 0.02987 ± 0.00016 | protein stability index (Saccharomyces cerevisiae [2]; [4]): 0.03 ± 0.0043 | protein stability index (Saccharomyces cerevisiae [2]; [5]): 0.156 ± 0.019 | protein stability index (Saccharomyces cerevisiae [2]; [6]): 0.0912 ± 0.0067 | protein stability index (Saccharomyces cerevisiae [2]; [7]): 0.109 ± 0.01 | protein stability index (Saccharomyces cerevisiae [2]; [8]): 0.137 ± 0.03 | protein stability index (Saccharomyces cerevisiae [2]; [9]): 0.0758 ± 0.0021

IIFCVRVVGGDL
protein stability index (Saccharomyces cerevisiae [1]): 0.46 ± 0.04 | protein stability index (Saccharomyces cerevisiae [2]; [3]): 0.449 ± 0.038 | protein stability index (Saccharomyces cerevisiae [2]; [4]): 0.508 ± 0.0054 | protein stability index (Saccharomyces cerevisiae [2]; [5]): 0.371 ± 0.029 | protein stability index (Saccharomyces cerevisiae [2]; [6]): 0.5566 ± 0.00057 | protein stability index (Saccharomyces cerevisiae [2]; [7]): 0.332 ± 0.0066 | protein stability index (Saccharomyces cerevisiae [2]; [8]): 0.38 ± 0.018 | protein stability index (Saccharomyces cerevisiae [2]; [9]): 0.5288 ± 0.0041

VRVLPFCWCIVR
protein stability index (Saccharomyces cerevisiae [1]): 0.274 ± 0.0053 | protein stability index (Saccharomyces cerevisiae [2]; [3]): 0.177 ± 0.03 | protein stability index (Saccharomyces cerevisiae [2]; [4]): 0.14 ± 0.0084 | protein stability index (Saccharomyces cerevisiae [2]; [5]): 0.188 ± 0.028 | protein stability index (Saccharomyces cerevisiae [2]; [6]): 0.288 ± 0.005 | protein stability index (Saccharomyces cerevisiae [2]; [7]): 0.263 ± 0.019 | protein stability index (Saccharomyces cerevisiae [2]; [8]): 0.187 ± 0.017 | protein stability index (Saccharomyces cerevisiae [2]; [9]): 0.259 ± 0.046
